Experimental data taken from paper PMC10245933.
pEC50: −log10 of the molar value. Where two headings read alike, the source gives them in different places.

Experiments:
[1] = biological target: NOPLight (human (NOPR part)); assay: sensor fluorescence kinetics
[2] = biological target: NOPLight (human (NOPR part)); assay: other fluorescence titration
[3] = biological target: NOPLight (human (NOPR part)); assay: other fluorescence titration; remark: listed apart in the source
[4] = biological target: NOPLight (human (NOPR part)); assay: other fluorescence titration; remark: listed apart in the source
[5] = biological target: NOPLight (human (NOPR part)); assay: sensor fluorescence in brain slices

| Substance | τON (time constant of signal activation) [1] [ms] | pEC50 [2] | ΔF/F0 upon N/OFQ [2] [%] | ΔF/F0 upon N/OFQ [3] [%] | pEC50 [4] | F/F0 upon CNO-evoked release [5] [%] |
| --- | --- | --- | --- | --- | --- | --- |
| Nociceptin/orphanin-FQ peptide (from UniProt Q13519 130-146) | 595 | 7.54 | 388 | 378 | 7.37 | – |
| endogenous N/OFQ released from PNOC neurons (peptide) | – | – | – | – | – | 1.6 |
